Measurements: patent US20160152995A1, “METHODS AND COMPOSITIONS TO IMPROVE THE SPREAD OF CHEMICAL SIGNALS IN PLANTS” (PIONEER HI-BRED INTERNATIONAL, INC., priority 2013, published 2016)

B1: L8-1A04 (protein)
chain: MARLDKSKVINSALELLNEVGIEGLTTRKLAQKLGVEQPTLYWHVKNKRALLDALAIEMMDRHQTHYLPLEGESWQDFLRNNAKSCRNALLSHRDGAKVCLGTRWTEQQYETAENMLAFLTQQGFSLENALYALEAARVFTLGAVLFDQESQVAKEERETPTTDSMPPLLRQAWELKDHQGAEPAFLFGLELIISGLEKQLKRESGS
modifications: Sulfonylurea responsive repressor
B2: L8-3A04 (protein)
chain: MARLDKSKVINSALELLNEVGIEGLTTRKLAQKLGVEQPTLYWHVKNKRALLDALAIEMMDRHQTHYSPLEGESWQDFLRNNAKSCRRALLSHRDGAKVCLGTRWTEQQYESAENMLAFLTQQGFSLENALYAVSAVRVFTLGAVLFDQESQVAKEERETPTTDSMPPLLRQAWELKDHQGAEPAFLFGLELIIRGLEKQLKRECGS
modifications: Sulfonylurea responsive repressor
B3: L8-3B08 (protein)
chain: MARLDKSKVINSALELLNEVGIEGLTTRKLAQKLGVEQPTLYWHVKNKRALLDALAIEMMDRHQTHYSPLEGESWQDFLRNNAKSLRCALLSHRDGAKVCLGTRWTEQQYESAENMLAFLTQQGFSLENALYAVDAARVFTLGWVLFDQESQVAKEERETPTTDSMPPLLRQAWELKDHQGAEPAFLFGLELIIRGLEKQLKRESGS
modifications: Sulfonylurea responsive repressor
B4: L8-3D03 (protein)
chain: MARLDKSKVINSALELLNEVGIEGLTTRKLAQKLGVEQPTLYWHVKNKRALLDALAIEMMDRHQTHYLPLEGESWQDFLRNNAKSCRNALLSHRDGAKVCLGTRWTEQQYESAENMLAFLTQQGFSLENALYALDAVRVFTLGAVLFDQESQVAKEERETPTTDSMPPLLRQAWELKDHQGAEPAFLFGLELIIRGLEKQLKSESGS
modifications: Sulfonylurea responsive repressor
B5: L8-2F12 (protein)
chain: MARLDKSKVINSALELLNEVGIEGLTTRKLAQKLGVEQPTLYWHVKNKRALLDALAIEMMDRHQTHYSPLEGESWQDFLRNNAKSCRNALLSHRDGAKVCLGTRWTEQQYESAENMLAFLTQQGFSLENALYALQAVRVFTLGWVLFDQESQVAKEERETPTTDSMPPLLRQAWELKDHQGAEPAFLFGLELIIRGLEKQLKSESGS
modifications: Sulfonylurea responsive repressor
B6: L8-1A03 (protein)
chain: MARLDKSKVINSALELLNEVGIEGLTTRKLAQKLGVEQPTLYWHVKNKRALLDALAIEMMDRHQTHYSPLEGESWQDFLRNNAKSCRNALLSHRDGAKVCLGTRWTEQQYESAENMLAFLTQQGFSLENALYALDAVRVFTLGAVLFDQESQVAKEERETPTTDSMPPLLRQAWELKDHQGAEPAFLFGLELIIAGLEKQLKRESGS
modifications: Sulfonylurea responsive repressor
B7: L8-3E05 (protein)
chain: MARLDKSKVINSALELLNEVGIEGLTTRKLAQKLGVEQPTLYWHVKNKRALLDALAIEMMDRHQTHYCPLEGESWQDFLRNNAKSLRCALLSHRDGAKVCLGTRWTEQQYESAENMLAFLTQQGFSLENALYALQAVRIFTLGCVLFDQESQVAKEERETPTTDSMPPLLRQAWELKDHQGAEPAFLFGLELIIRGLEKQLKRESGS
modifications: Sulfonylurea responsive repressor
B8: L8-3A07 (protein)
chain: MARLDKSKVINSALELLNEVGIEGLTTRKLAQKLGVEQPTLYWHVKNKRALLDALAIEMMDRHQTHYSPLEGESWQDFLRNNAKSMRCALLSHRDGAKVCLGTRWTEQQYESAENMLAFLTQQGFSLENALYAVSAVRVFTLGWVLFDQESQVAKEERETPTTDSMPPLLRQAWELKDHQGAEPAFLFGLELIIAGLEKQLKRESGS
modifications: Sulfonylurea responsive repressor
B9: L8-3A05 (protein)
chain: MARLDKSKVINSALELLNEVGIEGLTTRKLAQKLGVEQPTLYWHVKNKRALLDALAIEMMDRHQTHYSPLEGESWQDFLRNNAKSCRNALLSHRDGAKVCLGTRWTEQQYESAENMLAFLTQQGFSLENALYAVSAVRVFTLGAVLFDQESQVAKEERETPTTDSMPPLLRQAWELKDHQGAEPAFLFGLELIISGLEKQLKSESGS
modifications: Sulfonylurea responsive repressor
B10: L8-1B12 (protein)
chain: MARLDKSKVINSALELLNEVGIEGLTTRKLAQKLGVEQPTLYWHVKNKRALLDALAIEMMDRHQTHYSPLEGESWQDFLRNNAKSWRCALLSHRDGAKVCLGTRWTEQQYESAENMLAFLTQQGFSLENALYALEAVRVFTLGWVLFDQESQVAKEERETPTTDSMPPLLRQAWELKDHQGAEPAFLFGLELIIAGLEKQLKAESGS
modifications: Sulfonylurea responsive repressor
B11: L8-3F02 (protein)
chain: MARLDKSKVINSALELLNEVGIEGLTTRKLAQKLGVEQPTLYWHVKNKRALLDALAIEMMDRHQTHYSPLEGESWQDFLRNNAKSCRRALLSHRDGAKVCLGTRWTEQQYESAENMLAFLCQQGFSLENALYAVSAVRIFTLGAVLFDQESQVAKEERETPTTDSMPPLLRQAWELKDHQGAEPAFLFGLELIIAGLEKQLKRESGS
modifications: Sulfonylurea responsive repressor

System: E. coli assay strain Km3
Assay type: cell-based
Settings: library L8 hits, M9 Xgal colony assay; for IND = induction with 200 ppb Cs at 24 hrs (blue colony color intensity thru ImageJ analysis): 200 ppb Chlorsulfuron; for F. IND = fold induction: induction with 200 ppb Cs at 24 hrs/repression at 48 hrs: ratio IND (200 ppb Cs, 24 hrs) / REP (48 hrs)
Description: Library L6 was assembled, rescued, ligated into pVER7314, transformed into E. coli KM3 and plated out onto LB carbenicillin/kanamycin, and carbenicillin only control media as before. Library plates were then picked into 42 384-well microtiter plates (˜16,000 clones) containing 60 μl LB carbenicillin (Cb) broth per well. After overnight growth at 37° C. the cultures were stamped onto M9 assay plates containing no inducer, 0.2 ppm, and 2.0 ppm chlorsulfuron as test inducer. Following incubation at 30° C. for ˜48 hrs, putative hits responding to chlorsulfuron treatment as determined by increased blue colony color were re-arrayed into six 96-well microtiter plates and used to stamp a fresh set of M9 assay plates to confirm the above results. For a more detailed analysis of the relative induction by chlorsulfuron, digital photographs were taken of the plates after various time points of incubation at 30° C. and colony color intensity measured using the digital image analysis freeware program ImageJ (Rasband, US National Institutes of Health, Bethesda, Md., USA, rsb.info.nih.gov/ij/, 1997-2007). […] From this analysis sequence-activity relationships were derived. […] Briefly, C at position 100, and Q at positions 108 and 109 strongly correlated with activation, while R at position 138, L at position 170, and A or G at position 173 were highly preferred in clones with the lowest background activity. […] This information will aid in the design of further libraries to improve responsiveness to chlorsulfuron.
Library L8 construction and screening. Fourth round shuffling incorporated the best diversity from Rd3 shuffling (BB1860) as well as computational diversity (Table 14). As diversity was very high the library oligo mix was spiked into the parental hit variant oligo mix (5, 10, and 25% mixes) to titer down the number of residue changes per clone. In addition, to varying residues for Cs activity, seven residues (C68, C86, C88, C121, C144, C195, and C203) were varied with TetR family phylogenetic substitutions in an attempt to reduce the number of cysteine residues in the repressor. The PCR assembled libraries were cloned Sac1/Asc1 into pVER7334. This plasmid encodes PBAD promoter controlled expression of a plant optimized TetR DNA binding domain fused to the wt ligand binding domain of TetR(B) encoded by native Tn10 sequence on a Sac1 to Asc1 fragment. Approximately 15,000 clones were screened for blue colony color on the M9 Xgal assay plates +/−200 ppb Chlorsulfuron (Cs). Clones were ranked by ratio of color with inducer after 24 hrs incubation over colony color without inducer for 48 hrs of incubation. The sequence trend in the overall larger population of hits (first re-array) was that L55, R104, W105 and L170 were maintained while the C144A substitution was highly preferred. Sequence trends within the hit population were then noted with respect to repression, induction and fold induction (which corrects for leakiness).
Mutagenesis reactions were transformed into library strain Km3 and 96 colonies tested for substitution by DNA sequence analysis. Substitutions representing each possible residue at each position were then re-arrayed in triplicate onto M9 X-gal assay plates with 0, 20 and 200 ppb Chlorsulfuron. Plates were incubated at 37° C. for 24 and 48 hrs prior to imaging. Residue substitutions were then ranked by activation (emphasis on 20 ppb Cs) and repression characteristics (emphasis on 48 hr time point). The mutation with the greatest impact on activity was substitution of residue N82 to phenylalanine or tyrosine. […] All other preferred substitutions shown in Table 18 either improved repression or improved sensitivity to inducer without compromising repressor function. Certain residues were indispensible to function such as R104, W105, and W174 as substitutions were not allowed. Other residue positions such as R138 and K177 were also flagged as critical since functional substitutions were extremely limited. […]

Molecule	IND = induction with 200 ppb Cs at 24 hrs (blue colony color intensity thru ImageJ analysis)	F. IND = fold induction: induction with 200 ppb Cs at 24 hrs/repression at 48 hrs	REP = repression measured without inducer after 48 hrs (blue colony color intensity thru ImageJ analysis)
B1	12.2	6.2	2.0
B2	0.5	3.3	0.1
B3	13.0	6.1	2.1
B4	5.9	4.9	1.2
B5	2.7	3.6	0.7
B6	8.6	3.1	2.8
B7	1.4	3.4	0.4
B8	0.7	2.9	0.2
B9	0.3	3.3	0.1
B10	12.5	5.1	2.4
B11	3.4	3.5	1.0
